The nature of this data set: protein stability index of a GFP-peptide fusion (GPS, HEK-293T) (PSI 1-6); higher = more stable. The following applies: c terminus: a fixed tail appended.

Data on 72 sequences can be found in the supplement of paper PMC10567573.

± gives the standard deviation.
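Further: 24-mer peptide tiles fused after GFP, lentivirally expressed, FACS-sorted into six equal bins by GFP/DsRed ratio, decoded by Illumina sequencing, PSI is the read-weighted mean bin number.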

KLHEIFRGLHEDLQGVPERLLGTA [VTI1B]: the protein stability index reads like this: (treatment: DMSO) 2.48 ± 0.3; (treatment: MLN4924 1 uM, 8 h) 2.72 ± 0.74.
As to KLLHIYYQNSIDDRLLVERIFAQY [PDS5B], the protein stability index amounted to 2.68 ± 0.63 (treatment: DMSO) and 3.39 ± 0.59 (treatment: MLN4924 1 uM, 8 h).
The corresponding values for KLLNRCCHLFSTYVASHKIEKEEQ [ACBD3] are 2.21 ± 0.1 and 2.23 ± 0.28.
Take KLLQGEEERLKLSPSPSSRVTVSR [LMNB1]: the protein stability index stood at 4.13 ± 0.23 (treatment: DMSO) and 4.13 ± 0.3 (treatment: MLN4924 1 uM, 8 h).
The corresponding values for KMEIYQKENKDVIQKNKLKLTREQ [MNAT1] are 3.89 ± 0.41 and 4.16 ± 0.34.
Turning to KMELGIDLLAYGAKAELPKYKSFN [MYOZ1], the protein stability index worked out at 2.59 ± 0.23 (treatment: DMSO) and 2.77 ± 0.24 (treatment: MLN4924 1 uM, 8 h).
For the sequence KMFLRTREPALDGGFQMHYEKTPF [EID1], the protein stability index reads like this: (treatment: DMSO) 2.83 ± 0.25; (treatment: MLN4924 1 uM, 8 h) 3.05 ± 0.4.
The matching figures for KNELERDSKIVVPPLPGKALKRQL [SNX12]: 4.5 ± 0.26 and 4.56 ± 0.2.
Regarding KNEVGGLIKALKIFQEKHVNLLHI [TPH1], the protein stability index runs as follows: (treatment: DMSO) 2.02 ± 0.43; (treatment: MLN4924 1 uM, 8 h) 2.12 ± 0.011.
For the sequence KNIVIADFVMSLTFPFKILGDSGL [P2RY14], the protein stability index was determined as 3.04 ± 0.65 (treatment: DMSO) and 2.99 ± 0.38 (treatment: MLN4924 1 uM, 8 h).
The corresponding values for KNLYTNEYVAIKLEPMKSRAPQLH [CSNK1G3] are 2.55 ± 0.28 and 2.5 ± 0.13.
With KPGNNEGSGAPSPLSKSSPATTVT [SNAP91], the protein stability index is, setting by setting: (treatment: DMSO) 5.21 ± 0.11; (treatment: MLN4924 1 uM, 8 h) 5.1 ± 0.13.
Take KPGPITLTVAKCWDPSPRGCFTLP [DVL3]: the protein stability index was determined as 2.41 ± 0.32 (treatment: DMSO) and 2.59 ± 0.11 (treatment: MLN4924 1 uM, 8 h).
The corresponding values for KPLDLSDSTLSYTETEATNSLITA [SMAD6] are 4.82 ± 0.2 and 4.92 ± 0.059.
For KQPPLSTVPADGYILELDDGNGGQ [TRIM9], the protein stability index runs as follows: (treatment: DMSO) 5.07 ± 0.12; (treatment: MLN4924 1 uM, 8 h) 5.07 ± 0.2.
As to KQQRNEVSFVIHNLPIIAKMAAVS [SEPHS2], the protein stability index came to 2.51 ± 0.61 (treatment: DMSO) and 2.35 ± 0.36 (treatment: MLN4924 1 uM, 8 h).
Regarding KRPAWGSRRFEAVGWWALLALVTL [POMT2], the protein stability index by setting is: (treatment: DMSO) 2.64 ± 0.71; (treatment: MLN4924 1 uM, 8 h) 2.29 ± 0.24.
KSNVLKLKTADWRVFLFQAPSKEE [PSD2]: the protein stability index by setting is: (treatment: DMSO) 2.33 ± 0.077; (treatment: MLN4924 1 uM, 8 h) 2.44 ± 0.28.
Consider KSSLIWSYPAGSLTFPVRPFFYTG [TRIM43], for which the protein stability index stood at 2.19 ± 0.26 (treatment: DMSO) and 2.08 ± 0.18 (treatment: MLN4924 1 uM, 8 h).
The matching figures for KWDAENAIQQMGGQWLGGRQIRTN [TIA1]: 3.51 ± 0.28 and 3.56 ± 0.3.
As to KYENELALRQSVEADINGLRRVLD [KRT13], the protein stability index turned out to be 3.57 ± 0.17 (treatment: DMSO) and 3.65 ± 0.29 (treatment: MLN4924 1 uM, 8 h).
The corresponding values for KYLVEHKADLEVSNRHGHTCLMIS [FEM1C] are 2.53 ± 0.12 and 2.67 ± 0.23.
The matching figures for LAARRQWRDECLMRLAKLKSQVQP [CRYL1]: 2.35 ± 0.36 and 2.52 ± 0.79.
As to LALRQGVEADINGLRRVLDELTLA [KRT15], the protein stability index reads like this: (treatment: DMSO) 2.51 ± 0.26; (treatment: MLN4924 1 uM, 8 h) 2.65 ± 0.4.
For LAPIHKLEEALYEYQPLQIETYGP [MNAT1], the protein stability index reads like this: (treatment: DMSO) 2.41 ± 0.46; (treatment: MLN4924 1 uM, 8 h) 2.71 ± 0.49.
The corresponding values for LASSLGNLNAATDDPENKKTSSSS [CDC14A] are 5.43 ± 0.15 and 5.53 ± 0.15.
The matching figures for LCLDLAPSETGNTFVSGGCDKKAM [GNB5]: 3.96 ± 0.15 and 4.02 ± 0.17.
The corresponding values for LDELLGRGMATKLLARPGTGEHRE [FBF1] are 3.75 ± 0.17 and 4.09 ± 0.29.
Turning to LDPRYKRLPFLSAFERQQVENRVV [ZBED1], the protein stability index (treatment: DMSO) worked out at 3.36 ± 0.091 and the protein stability index (treatment: MLN4924 1 uM, 8 h) stood at 3.47 ± 0.13.
Take LDSCKQLTLAQGAGEEDPSGMVTI [SMG5]: the protein stability index turned out to be 4.46 ± 0.16 (treatment: DMSO) and 4.49 ± 0.4 (treatment: MLN4924 1 uM, 8 h).
The matching figures for LDVTVQSFGWSDRAKVKTDDIARI [FAM98B]: 2.98 ± 0.28 and 2.89 ± 0.36.
The matching figures for LEDKLRLLAQARDEAQGACLQQKQ [LRRC45]: 4.49 ± 0.33 and 4.19 ± 0.22.
The corresponding values for LEEVNDEGYTPLMEAAREGHEEMV [ANKRD17] are 5.49 ± 0.08 and 5.52 ± 0.23.
Turning to LEEYITDEQKEEEEEEGEEEELIR [FAM9B], the protein stability index is, setting by setting: (treatment: DMSO) 5.37 ± 0.15; (treatment: MLN4924 1 uM, 8 h) 5.59 ± 0.33.
The matching figures for LEGYISNLRKQLETLSGDRVRLDS [KRT71]: 3.17 ± 0.4 and 3.26 ± 0.35.
Consider LEMCVDARTFGNEARFIRRSCTPN [KMT2E], for which the protein stability index was 3.19 ± 0.21 (treatment: DMSO) and 3.13 ± 0.16 (treatment: MLN4924 1 uM, 8 h).
With LENVLDPDSFYELKSQPLPLRSSL [TFE3], the protein stability index (treatment: DMSO) worked out at 3.4 ± 0.27 and the protein stability index (treatment: MLN4924 1 uM, 8 h) is 3.49 ± 0.21.
The matching figures for LEPAQRPPLSHIMAQPLCIRALLN [NEK8]: 3.35 ± 0.21 and 3.48 ± 0.16.
Consider LEPGSADPLANGCQGVSEAAHRLA [PSD2], for which the protein stability index was 5.22 ± 0.075 (treatment: DMSO) and 5.23 ± 0.24 (treatment: MLN4924 1 uM, 8 h).
As to LETEQGKPFVSVFRHLRLQYIISD [GMCL1], the protein stability index (treatment: DMSO) amounted to 2.21 ± 0.56 and the protein stability index (treatment: MLN4924 1 uM, 8 h) was 2.05 ± 0.33.
Turning to LFGFSAVSIMYLVLVLAVQVHAWQ [JAGN1], the protein stability index turned out to be 3.8 ± 0.15 (treatment: DMSO) and 2.97 ± 0.39 (treatment: MLN4924 1 uM, 8 h).
In the case of LFRKDVDDATLSRLELERKIESLM [PRPH], the protein stability index runs as follows: (treatment: DMSO) 3.06 ± 0.22; (treatment: MLN4924 1 uM, 8 h) 3.33 ± 0.29.
The matching figures for LFYSAEVEMLCDQAWGSMLEVPAG [CCDC3]: 1.92 ± 0.53 and 2.26 ± 0.41.
For LGCQGAQFVSSVPRCDLVDLGEGK [FAM189A2], the protein stability index by setting is: (treatment: DMSO) 4.31 ± 0.14; (treatment: MLN4924 1 uM, 8 h) 4.18 ± 0.13.
The corresponding values for LGIGMDSCVIPLRHGGLSLVQTTD [SEPHS2] are 2.8 ± 0.33 and 2.98 ± 0.4.
For the sequence LGLGSMIGTMAGITTPIIDTFKVP [SLC6A17], the protein stability index runs as follows: (treatment: DMSO) 2.55 ± 0.12; (treatment: MLN4924 1 uM, 8 h) 2.51 ± 0.31.
The corresponding values for LGPLGSTAFLPDSKCLVDDGTGRM [GALNT9] are 3.89 ± 0.36 and 4.24 ± 0.21.
With LGPRDAGTRGRLESAQATFQAHRD [ARFIP2], the protein stability index was determined as 4.62 ± 0.35 (treatment: DMSO) and 4.67 ± 0.27 (treatment: MLN4924 1 uM, 8 h).
The matching figures for LGSDYEQPLEVKNNSNLQRMGSSE [CDC25A]: 5.01 ± 0.19 and 4.94 ± 0.57.
For the sequence LGSQIKSLCNLEESITSAGRDDLE [FAM98B], the protein stability index runs as follows: (treatment: DMSO) 4.63 ± 0.3; (treatment: MLN4924 1 uM, 8 h) 4.74 ± 0.17.
The matching figures for LHGKAIKVEQAKKPSFQSGGRRRP [RBMY1A1]: 3.89 ± 0.2 and 4.21 ± 0.16.
The corresponding values for LHRLKFLGFARRNWGNGKRPNLET [GDAP1] are 2.22 ± 0.32 and 2.44 ± 0.45.
The matching figures for LHVNGESLEMDSDEDDSEELEEDD [EHMT1]: 5.41 ± 0.26 and 5.28 ± 0.12.
Take LIKEGGMPLLRDIIKMATARQETK [ZER1]: the protein stability index is, setting by setting: (treatment: DMSO) 2.69 ± 0.32; (treatment: MLN4924 1 uM, 8 h) 2.65 ± 0.38.
The sequence LIKKKKEELEAKRLQCPFEQELLR [FAM107A] returned a protein stability index (treatment: DMSO) of 3.66 ± 0.12 and a protein stability index (treatment: MLN4924 1 uM, 8 h) of 3.71 ± 0.15.
For the sequence LIYTLKNAEMKSAMRKLWSKKVSL [OR4A15], the protein stability index (treatment: DMSO) was determined as 2.41 ± 0.97 and the protein stability index (treatment: MLN4924 1 uM, 8 h) worked out at 2.04 ± 0.12.
On to LIYVVIDLPINVFKLLAGRWPFDH [EDNRA], for which the protein stability index (treatment: DMSO) worked out at 2.27 ± 1 and the protein stability index (treatment: MLN4924 1 uM, 8 h) is 3.04 ± 0.23.
Take LKAIIFFDPDAKGLSDPGKIKRLR [HNF4A]: the protein stability index reads like this: (treatment: DMSO) 2.45 ± 0.33; (treatment: MLN4924 1 uM, 8 h) 2.37 ± 0.12.
The corresponding values for LKDDIYIRYQSFNNQSDLEKEMQK [PRIM1] are 4.41 ± 0.08 and 4.27 ± 0.26.
In turn, LKEGMLMKIKQDRASRTYELQNQL [FSD1] had a protein stability index (treatment: DMSO) of 3.05 ± 0.35 and a protein stability index (treatment: MLN4924 1 uM, 8 h) of 3.39 ± 0.19.
On to LKEPLHKALQMLLSQPVTYQAFRE [BCL2L13], for which the protein stability index came out at 2.76 ± 0.085 (treatment: DMSO) and 2.77 ± 0.4 (treatment: MLN4924 1 uM, 8 h).
The corresponding values for LKHPNIVRLHDSISEEGHHYLIFD [CAMK2A] are 2.58 ± 0.32 and 2.79 ± 0.25.
Regarding LKSELGRKWHKASNYIFVAIFWIV [P2RY14], the protein stability index was determined as 2.24 ± 0.61 (treatment: DMSO) and 2.31 ± 0.19 (treatment: MLN4924 1 uM, 8 h).
LKTSRKDVKDKETTENENTKFEVR [CHGB]: the protein stability index reads like this: (treatment: DMSO) 5.03 ± 0.11; (treatment: MLN4924 1 uM, 8 h) 5.22 ± 0.092.
Regarding LLELQSQQACTHTKETEQLRSQLQ [CCDC89], the protein stability index (treatment: DMSO) amounted to 4.06 ± 0.32 and the protein stability index (treatment: MLN4924 1 uM, 8 h) amounted to 4.29 ± 0.25.
In the case of LLGAVNFFVSSINTLVTKTMEDTL [ARFIP2], the protein stability index is, setting by setting: (treatment: DMSO) 3.13 ± 0.21; (treatment: MLN4924 1 uM, 8 h) 3.07 ± 0.26.
The corresponding values for LLLLLPTLQSITWQMIEQIQFIKL [HNF4A] are 3.58 ± 0.39 and 3.28 ± 0.28.
Take LLMTADILAETGIRKTVKRLRKHQ [ELOA2]: the protein stability index runs as follows: (treatment: DMSO) 2.41 ± 0.31; (treatment: MLN4924 1 uM, 8 h) 2.84 ± 0.25.
The matching figures for LLPMLDALRFTADVRSVLSRNLHQ [CTDNEP1]: 2.5 ± 0.37 and 2.1 ± 0.21.
The corresponding values for LLQRRKRENMSDGDTSATESGDEV [KMT2E] are 5.52 ± 0.17 and 5.32 ± 0.38.
The corresponding values for LLQTQHALGDAFADLSQKSPELQE [ARFIP2] are 4.7 ± 0.22 and 4.77 ± 0.21.
Consider LLSRFSVGIFHLMQIAVPCAFLLL [TMEM175], for which the protein stability index is, setting by setting: (treatment: DMSO) 2.6 ± 0.35; (treatment: MLN4924 1 uM, 8 h) 2.24 ± 0.25.
